For data set [1], the system named is casein. Put plainly: pH stability and autolytic resistance, 6 hours at 37° C. in phosphate buffer. The data set is classed as physicochemical. The note with it: for Retained activity after 6 hours of exposure: phosphate buffer, average of 5 ± standard error. The protocol: Natural (non-immobilized) and immobilized forms of each enzyme were loaded into 10 mL of phosphate buffer solutions at pH 7.0, 6.0, and 5.0 and mixed for 6 hours at 37° C. These pH values were selected as representative of the range of pH of intact to wounded skin. The amount of natural or immobilized enzyme material that was added at the start of the test was based on its measured activity, so that all tests started with similar enzyme activities for each enzyme: 2.6 U bromelain, 21 U collagenase, and 5.4 U trypsin. Retained activity was determined by taking a sample of the test solution at a given time point and evaluating it against casein. The measured activity of the test sample was divided by the activity measured at the start of the test and is presented as the average of 5 measurements±standard error, Table 2.

Data set [2] can be described thus: Diffusion through Strat-M membranes in Franz cell (in vitro dermal compatibility). The data set is classed as in vitro ADME. The note with it: after 6 hours, averaged across all tests, 37° C., PBS pH 7.4. An excerpt: Strat-M™ membranes (EMD Millipore) were selected and for testing diffusion of the immobilized enzyme through healthy skin. Strat-M is a synthetic polymeric membrane designed to simulate the properties of human skin for transdermal diffusion. The membrane is composed of multiple polyether sulfone layers with a tightly packed surface layer to create a morphology that resembles human skin. The advantage of this material is that it provides a more predictive result, since it has less variability between samples, and is not as limited to storage conditions, safety considerations, and sample availability.
Franz cells with 5 mL receptor volumes were filled with filtered 10 mM PBS buffer at pH 7.4 and held at 37° C. Strat-M membranes were placed on the receptor, covered with 0.3 mL of buffer, and the system was allowed to equilibrate with the receptor fluid for at least 30 minutes. After equilibration 0.5 mL of solutions containing 20-100 mg/mL of natural enzyme, immobilized enzyme, or BSA as a control were added to the top of the Franz cell and the cell was covered. 0.5 mL samples were taken hourly (replacing the volume with fresh PBS buffer each time) for the first 6 hours and a final sample at 24 hours. The protein concentration in each sample was evaluated using a Bradford assay and a 660 nm protein concentration assay from Pierce. The enzyme activity of the 24-hour samples was evaluated to determine if active enzyme or just peptides had passed through the membrane.

Data set [3] concerns Human fibroblasts. Put plainly: Fibroblast compatibility study, resazurine-based assay. It is filed as cell-based. The note with it: all tested concentrations. How it is done:
(§1) Immobilized enzyme samples were further analyzed to determine if they have a detrimental effect on healthy tissue surrounding a burn wound. Human keratinocytes and fibroblasts obtained from ATCC, were seeded at cell densities of 2×10^4 in 24 well plates 6 days prior to experiments and incubated at 37° C. under 5% CO2. On day 7 a stock solution of 100 mg/mL an immobilized enzyme or natural enzyme is prepared in either PBS or a culture medium. Cells were treated with 500 μL of the enzyme solution, at several dilutions, for up to 6 hours. At the end of the test, the enzyme solution is removed, cells were washed twice with PBS, and 500 μL of the appropriate cultivation media is added. The effect of the different concentrations of enzyme on the cells is assessed using a resazurine-based assay and life cell imaging. In this case the fluorescence signal is proportional to the amount of vital cells. All enzyme concentrations were measured in triplicate (n=3). The enzyme containing fluid removed after 6 hours of exposure to cells is evaluated using the methods described above for enzymatic activity. Data determined above is used to compensate for autolytic degradation in test samples.

The test system of data set [4] is Human keratinocytes. Briefly: Keratinocyte compatibility testing, resazurine-based assay. The data set is classed as cell-based. How it is done: as §1
In general terms: Alamar Blue is a resazurin reagent that responds to reducing activity.

As to trypsin, the “Retained activity after 6 hours of exposure” value (from here on “Retained activity”) is reported as 43.3% ± 1.1% in data set [1] (pH 5, 37° C.); 46.1% ± 1.2% in data set [1] (pH 6, 37° C.); 7.7% ± 5.3% in data set [1] (pH 7, 37° C.). Moreover, the “Loss of starting activity after 6 hours” value in data set [1] (pH 7) is 92%. Besides, the “Amount of protein passing through Strat-M membranes” value (from here on “Amount”) in data set [2] is recorded as 11.93 ± 0.50 mg. In addition, in data set [3], the “Relative signal (cell growth)” value was “almost no change to cell growth”. For the same substance, in data set [4] (all tested concentrations), the Relative signal result was “around 1”.
Turning to bromelain, the “Retained activity” value is reported as 95.6% ± 4.9% in data set [1] (pH 5, 37° C., listed as bromelain Natural); 36.1% ± 1.4% in data set [1] (pH 6, 37° C.); 64.7% ± 3.0% in data set [1] (pH 7, 37° C.). In addition, the “Amount” value in data set [2] is recorded as 2.08 ± 0.25 mg. In data set [4] (40 mg/mL), the Highest relative signal worked out at 6.71.
Take collagenase: in data set [1] (all pH tested), the “Loss of initial activity within 6 hours” value was 80-90%. The “Retained activity” value in data set [1] (pH 5, 37° C.) is on record as 12.3% ± 4.5%; in data set [1] (pH 6, 37° C.), 18.9% ± 1.3%; in data set [1] (pH 7, 37° C.) it was 13.9% ± 3.3%. The “Amount” value in data set [2] worked out at 18.15 ± 0.81 mg. For the same substance, the “Relative signal (cell growth)” value in data set [3] was approximately 1.

The values are drawn from patent publication US20230255880A1, “IMMOBILIZED ENZYME-BASED WOUND DEBRIDEMENT” (Guild Associates Inc., priority 2022, published 2023).
